The target of one test is T1, mCCR8 (UniProt P56484 1-353, limits assumed).
T1 construct: whole, on cells; also called 293T-mCCR8
T1 sequence (looked up): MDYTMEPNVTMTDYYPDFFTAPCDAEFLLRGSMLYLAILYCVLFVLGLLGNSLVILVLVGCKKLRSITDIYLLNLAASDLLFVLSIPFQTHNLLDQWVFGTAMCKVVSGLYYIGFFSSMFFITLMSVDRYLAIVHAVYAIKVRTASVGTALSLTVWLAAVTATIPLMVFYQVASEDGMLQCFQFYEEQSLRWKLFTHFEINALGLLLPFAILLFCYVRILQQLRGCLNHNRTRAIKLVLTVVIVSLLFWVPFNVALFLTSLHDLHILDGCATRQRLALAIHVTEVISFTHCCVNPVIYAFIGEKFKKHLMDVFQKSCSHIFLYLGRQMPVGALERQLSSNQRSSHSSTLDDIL
Briefly: flow cytometry, 293T cells with mCCR8. Here is the method:
(§1) Binding specificity of the anti-CCR8 antibodies (mAbs) was tested by FACS using several cell lines. […] The binding titration of the anti-CCR8 antibodies to CCR8 transfectants was performed by serial dilution of antibodies. The diluted antibody (50 μl) in flow cytometry buffer (PBS, 0.5% BSA, 1 mM EDTA) was incubated with cells (50 μl) at a concentration of 2 million cells/ml on ice for 30 min. After two washes with flow cytometry buffer, bound antibody was detected with Alexa647-labeled F(ab′)2 fragment goat anti-human IgG (Jackson ImmunoResearch #709-606-149) (1:500 dilution) for 20 minutes on ice. The fluorescence was measured on a Cytek Aurora cytometer, after two washes with flow cytometry buffer. The data were analyzed with GraphPad Prism 8.0 software to determine EC50 values.

Test [1] deals with T2, Human CCR8 (C-C chemokine receptor type 8) (human, UniProt P51685 1-355).
T2 construct: overexpressed on HEK293T (293T-hCCR8), Jurkat-hCCR8 and CHEM1-CCR8 cells; also called hCCR8
T2 sequence (P51685 whole entry): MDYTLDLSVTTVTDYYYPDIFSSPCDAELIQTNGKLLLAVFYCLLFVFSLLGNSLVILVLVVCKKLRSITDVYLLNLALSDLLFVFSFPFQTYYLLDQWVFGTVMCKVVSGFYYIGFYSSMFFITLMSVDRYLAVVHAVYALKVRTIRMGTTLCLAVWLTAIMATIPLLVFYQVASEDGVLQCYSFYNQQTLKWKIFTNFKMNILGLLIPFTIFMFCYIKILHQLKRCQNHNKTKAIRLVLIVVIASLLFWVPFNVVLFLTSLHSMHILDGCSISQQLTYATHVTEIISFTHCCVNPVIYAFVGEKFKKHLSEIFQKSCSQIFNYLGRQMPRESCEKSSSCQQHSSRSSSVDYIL
Briefly: flow cytometry, 293T cells overexpressing human CCR8. Here is the method:
as §1

For another test, the target named is T3, cynomolgus macaque CCR8 (cynomolgus macaque, UniProt G7NYJ2 1-355).
T3 construct: whole, on cells; Overexpressed on 293T cells (293T-cCCR8) and Jurkat cells (Jurkat-cynoCCR8); also called cCCR8; cyno CCR8
T3 sequence (G7NYJ2 entry or part of it): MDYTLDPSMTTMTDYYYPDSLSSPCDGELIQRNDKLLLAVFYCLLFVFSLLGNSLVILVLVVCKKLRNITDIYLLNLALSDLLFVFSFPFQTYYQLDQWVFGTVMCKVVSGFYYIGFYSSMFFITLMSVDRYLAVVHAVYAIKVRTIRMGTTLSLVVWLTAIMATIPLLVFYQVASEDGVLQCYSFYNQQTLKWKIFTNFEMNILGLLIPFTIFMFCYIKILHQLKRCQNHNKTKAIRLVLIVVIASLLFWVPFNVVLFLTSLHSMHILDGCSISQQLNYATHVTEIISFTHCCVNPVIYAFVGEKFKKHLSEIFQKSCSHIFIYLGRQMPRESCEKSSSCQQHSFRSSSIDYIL
The experiment in a line: flow cytometry, 293T cells overexpressing cynomolgus CCR8. How it is done: as §1
Background: In flow cytometry, cells or beads pass a laser one at a time.

The target of test [2] is T2, Human CCR8 (C-C chemokine receptor type …). The experiment in a line: flow cytometry on cells carrying human CCR8.
Test [3] has the same target. The experiment in a line: flow cytometry, Hut78 cells (endogenous human CCR8). How it is done:
as §1

B1: ABC815 (antibody, human IgG1, kappa, V domains shown)
VH: VQLVESGGGLVQPGRSLKLSCAASGFTFSNYDMAWVRQVPTKGLEWVASVSPSAGTTYYRDSVKGRFTVSRDIAKSSLYLQMDSLRSEDTATYYCARHMIYRGYNYAVSYYVMDVWGQGASVTVSS
VL: IQLTQSPSLLSASVGDRVTLTCKGSQNINSYLAWYQQKLGEAPKLLIYNTNSLQTGIPSRFSGSGSGTDYTLTISSLQPEDVATYFCYQYNNGYTWTFGGGTKLELKR
Turning to B1, in the test with mCCR8, the binding result was “no binding”. For the same molecule, the EC50 (in test [1]; with cynomolgus macaque CCR8) was 6.47 nM each time.

B2: ABC137-H2.hu12.IgG1.SDIE (antibody, V domains shown)
VH: EVQLVESGGGLVQPGGSLRLSCAASGFPFNTFAMNWVRQAPGKGLEWLARIRSKSNNYATYYADSVKDRFTISRDNAKRSLYLQMNSLRAEDTAVYYCVRGKENNYGYAMDYWGQGTTVTVSS
VL: DIVMTQSPLSLPVTPGEPASISCRSSKSLLHSNGNTYLYWFLQKPGQSPQLLIYRMSNLASGVPDRFSGSGSGTDFTLKISRVEAEDVGVYYCMQHVEYPFTFGGGTKLEIKR
notes: Parental clone ABC025.H2G.SDIE; IgG1 with SDIE mutations
For the molecule B2, the binding result in test [2] is given as “binds”.

B3: ABC050-B1.hu13.IgG1.SDIE (antibody, V domains shown)
VH: EVQLVESGGGLVQPGGSLKLSCAASGFTFNTYAMNWVRQASGKGLEWVARIRSKSNNYATYYADSVKDRFTISRDDSKNTLYLQMNSLKTEDTAVYYCVREVRRDYALDQWGQGTMVTVSS
VL: DIVMTQSPLSLPVTPGEPASISCRSSKSLLHSSGNTYLYWFLQKPGQSPQLLIYRMSNLASGVPDRFSGSGSGTDFTLKISRVEAEDVGVYYCMQHVEYPFTFGGGTKLEIKR
notes: IgG1 with SDIE mutations, by its name
With B3, the binding result in test [2] is “binds”.

B4: H2C (antibody, human IgG1, kappa, V domains shown)
VH: EVQLVESGGGLVQPGGSLRLSCAASGFPFNTFAMNWVRQAPGKGLEWLARIRSKSNNYATYYADSVKDRFTISRDNARRSLYLQMNSLRAEDTAVYYCVRGKENNYGYAMDYWGQGTTVTVSS
VL: DIVMTQSPLSLPVTPGEPASISCRSSQSLLHSNGNTYLYWFLQKPGQSPQLLIYRMSNLASGVPDRFSGSGSGTDFTLKISRVEAEDVGVYYCMQHLEYPFTFGQGTKLEIKR
With B4, the binding result in test [2] is on record as “binds”.

B5: H2I (antibody, human IgG1, kappa, V domains shown)
VH: EVQLVESGGGLVQPGGSLRLSCAASGFPFNTFAMNWVRQAPGKGLEWLARIRSKSNNYATYYADSVKDRFTISRDNARRSLYLQMNSLRAEDTAVYYCVRGKENNYGYAMDYWGQGTTVTVSS
VL: DIVMTQSPLSLPVTPGEPASISCRSSQSLLHSNANTYLYWFLQKPGQSPQLLIYRMSNLASGVPDRFSGSGSGTDFTLKISRVEAEDVGVYYCMQHLEYPFTFGQGTKLEIKR
As for B5, the binding result in test [2] is reported as “binds”.

B6: ABC051-B1.hu14.IgG1.SDIE (antibody, V domains shown)
VH: EVQLVESGGGLVQPGGSLKLSCAASGFTFNTYAMNWVRQASGKGLEWVARIRSKSNNYATYYADSVKDRFTISRDDSKNTLYLQMNSLKTEDTAVYYCVREVRRDYALDQWGQGTMVTVSS
VL: DIVMTQSPLSLPVTPGEPASISCRSSKSLLHSNANTYLYWFLQKPGQSPQLLIYRMSNLASGVPDRFSGSGSGTDFTLKISRVEAEDVGVYYCMQHVEYPFTFGGGTKLEIKR
notes: as for B3
As for B6, in test [2], the binding result is on record as “binds”.

B7: ABC049-B1.hu12.IgG1.SDIE (antibody, V domains shown)
VH: EVQLVESGGGLVQPGGSLKLSCAASGFTFNTYAMNWVRQASGKGLEWVARIRSKSNNYATYYADSVKDRFTISRDDSKNTLYLQMNSLKTEDTAVYYCVREVRRDYALDQWGQGTMVTVSS
VL: DIVMTQSPLSLPVTPGEPASISCRSSKSLLHSQGNTYLYWFLQKPGQSPQLLIYRMSNLASGVPDRFSGSGSGTDFTLKISRVEAEDVGVYYCMQHVEYPFTFGGGTKLEIKR
notes: as for B3
On to B7, for which the binding result in test [2] is listed as “binds”.

B8: H2B (antibody, human IgG1, kappa, V domains shown)
VH: EVQLVESGGGLVQPGGSLRLSCAASGFPFNTFAMNWVRQAPGKGLEWLARIRSKSNNYATYYADSVKDRFTISRDNAKRSLYLQMNSLRAEDTAVYYCVRGKENNYGYAMDYWGQGTTVTVSS
VL: DIVMTQSPLSLPVTPGEPASISCRSSQSLLHSNGNTYLYWFLQKPGQSPQLLIYRMSNLASGVPDRFSGSGSGTDFTLKISRVEAEDVGVYYCMQHLEYPFTFGQGTKLEIKR
Turning to B8, the binding result in test [2] was “binds”.

B9: H2A (antibody, human IgG1, kappa, V domains shown)
VH: EVQLVESGGGLVQPGGSLRLSCAASGFPFNTFAMNWVRQAPGKGLEWLARIRSKSNNYATYYADSVKDRFTISRDNAKNSLYLQMNSLRAEDTAVYYCVRGKENNYGYAMDYWGQGTTVTVSS
VL: DIVMTQSPLSLPVTPGEPASISCRSSQSLLHSNGNTYLYWFLQKPGQSPQLLIYRMSNLASGVPDRFSGSGSGTDFTLKISRVEAEDVGVYYCMQHLEYPFTFGQGTKLEIKR
For the molecule B9, the binding result in test [2] was “binds”.

B10: ABC821 (antibody, human IgG1, kappa, V domains shown)
VH: EVQLVESGGGLVQPGRSLKLSCVASGFTFNYYWMTWIRQAPGKGLEWVASITNTGDTTYYPDSVKGRFTISRHNAKSTLYLQMNSLRSEDTATYYCSRGDGGSSFWIAYWGQGTLVTVSS
VL: DVVMTQTPVSLPVSLGGQASISCRSSQSLVHRSGNTYLHWYLQKPGQSPQLLIYRVSNRFSGGPDRFSGSGSGTTFTLKISRVEPEDLGDYYCLQTTHFPPTFGSGTKLEIKR
In the test with mCCR8, B10 returned an EC50 of 6.74 nM. Further, the binding result (in test [1]; in the test with cynomolgus macaque CCR8) was “no binding” in each case.

B11: ABC527 (antibody, human IgG1, kappa, V domains shown)
VH: EVQLVESGGGVVQPGRSLRLSCAASGFPFSFYGMAWVRQAPGKGLEWVASISYDGSDTYYRDSVKGRFTISRDNSKNTLYLQMNSLRAEDTAVYYCAKTSGYGSFDYWGQGTLVTVSS
VL: DIVMTQTPLSLSVTPGQPASISCRSSRSLVHRNGDTYLHWYLQKPGQSPQLLIYRVSNRFAGVPDRFSGSGSGTDFTLKISRVEAEDVGVYYCLQGTHLPPTFGQGTKLEIKR
On to B11, for which the binding result in the test with mCCR8 was “no binding”. Further, the EC50 in test [1] is 1.74 nM; in the test with cynomolgus macaque CCR8, 2.14 nM.

B12: ABC531 (antibody, human IgG1, kappa, V domains shown)
VH: EVQLVESGGGVVQPGGSLRLSCAASGFTFSNYGMHWIRQAPGKGLEWIAMIYSDSSKMFYTDTVKGRFTISRDNSKNTLYLQMNSLRAEDTAVYYCAARDYGYKGAHYYVMDAWGQGTTVTVSS
VL: DIQMTQSPSSLSASVGDRVTITCKSSQNINRYLNWYQQKPGKAPKLLIYNANNLQTGIPSRFSGSGSGTDFTFTISSLQPEDIATYYCLQHKSWPYTFGQGTKLEIKR
In the case of B12, the binding result with mCCR8 was “no binding”. For the same molecule, the concentration for a half-maximal effect (EC50) was 1.44 nM in test [1] and 0.554 nM with cynomolgus macaque CCR8.

B13: ABC818 (antibody, human IgG1, kappa, V domains shown)
VH: EVQLVESGGGLVQPGRSLKLSCAASGFTFSDYYMAWVRQAPKKGLEWVASITYAGSKTYYGDSVKGRFTISRDDAKSTLYLQMNSLRSEDTATYYCARQDLYYGHNPYWYFDFWGPGTMVTVSS
VL: DIVMTQSPTSMSISVGDRVTMNCKASQNVGSNVDWYQQKTGQSPKLLIYKTSSRFTGVPDRFTGSGSRTDFTFTISNMQAEDLALYYCVQSNSYPYTFGAGTKLELKR
With B13, in the test with mCCR8, the binding result is on record as “no binding”. Further, the EC50 stood at 0.744 nM in test [1] and 0.537 nM with cynomolgus macaque CCR8.

B14: ABC819 (antibody, human IgG1, kappa, V domains shown)
VH: EVQLVESGGGLMQPRRSLKLSCAASGFPFSDYNMAWVRQAPKKGLEWVASITYAGTKTYYGDSVKGRFTISRDDAKSTLYLQMNSLRSEDTATYYCARQDLYYGRNQYWYLDFWGPGTMVTVSS
VL: DIVMTQSPTSMSKSVGDRVTMSCKASQNVGSNVDWYQQKTGQSPKLLIYKTSSRFTGVPDRFTGSGSRTDFTFTISSMQAEDLALYYCVQSNSYPYTFGAGTKLELRT
B14: the binding result with mCCR8 is reported as “no binding”. The EC50 in test [1] was 8.51 nM; in the test with cynomolgus macaque CCR8, 7.11 nM.

B15: ABC823 (antibody, human IgG1, kappa, V domains shown)
VH: EVQLVESGGGLVQPRRSLKLSCAASGFTFSDYYMAWVRQAPKKGLEWVASIGYEGSGVYYGDSVKGRFTISRDDAKSSLYLQMNSLRSEDTATYYCARQELYYGHNPYWYFDFWGPGTMVTVSS
VL: DIVMTQSPTSMSISVGDRVTMNCKASQNVGSNVDWYQQKTGQSPKLLIYKTSSRFTGVPDRFTGSGSKTAFSFTISNMQAEDLAVYYCMQSNSYPYTFGAGTKLELKR
Take B15: the binding result in the test with mCCR8 is on record as “no binding”. Besides, the EC50 is 1.51 nM in test [1] and 0.884 nM in the test with cynomolgus macaque CCR8.

B16: ABC816 (antibody, human IgG1, kappa, V domains shown)
VH: AVQLVESGGGLVQPKESLKISCAASGFTFSNAAMYWVRQAPGKGLEWVARIRTKPNNYATYYADSVKGRFTISRDDSKSMVYLQMDNLKTEDTAMYYCTAAVYSSYGYFDYWGQGVMVTVSS
VL: DIQMTQSPASLSASLEEIVTITCQASQNNGNWLAWYQQKPGKSPQLLIYGTTNLADGVPSRFSGSRSGTQYSLKISRLQVEDIGIYYCQQASSTPWTFGGGTKLELKR
Turning to B16, the binding result (in test [3]; in the test with cynomolgus macaque CCR8) was “no binding” throughout. In addition, in the test with mCCR8, the EC50 turned out to be 0.133 nM.

For orientation: EC50 means the concentration giving half of the maximal effect. A higher EC50 goes with weaker potency.

Values taken from patent US20250289896A1 (ANALYTICAL BIOSCIENCES SHANGHAI, published 2025).
